In patent publication US20180164286A1 one finds fold-change of split-luciferase luminescence, rapamycin (50 nM, 1 h) over vehicle; HEK293 cells data, which are given here for four substances.

Small BiT (SB)-eIF4E, full-length, sequence (chain, as listed by the source limits assumed): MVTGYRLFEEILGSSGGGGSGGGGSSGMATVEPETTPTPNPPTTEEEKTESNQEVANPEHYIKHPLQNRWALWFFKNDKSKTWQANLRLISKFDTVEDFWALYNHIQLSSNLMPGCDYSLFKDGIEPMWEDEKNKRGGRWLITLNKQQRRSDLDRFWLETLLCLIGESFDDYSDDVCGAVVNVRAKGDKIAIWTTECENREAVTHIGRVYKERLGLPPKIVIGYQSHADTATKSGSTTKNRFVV
LB-4E-BP1 - residues 29 to end, sequence (Q13541 29-118): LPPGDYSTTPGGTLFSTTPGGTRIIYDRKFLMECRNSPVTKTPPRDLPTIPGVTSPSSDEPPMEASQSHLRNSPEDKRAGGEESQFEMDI

The assay has as its target Small BiT (SB)-eIF4E, full-length. The experiment in a line: cell-based or functional assay.
On to “4E-BP1 with C-terminal LB at residue 85 (from UniProt Q13541 1-85)”, for which the fold-change of split-luciferase luminescence, rapamycin (50 nM, 1 h) over vehicle; HEK293 cells was found to be 0.89 fold. Regarding “4E-BP1 with C-terminal LB at residue 95 (from UniProt Q13541 1-95)”, the fold-change of split-luciferase luminescence, rapamycin (50 nM, 1 h) over vehicle; HEK293 cells was found to be 0.98 fold. “Full-length 4E-BP1 with C-terminal LB (from UniProt Q13541 2-118)”: the fold-change of split-luciferase luminescence, rapamycin (50 nM, 1 h) over vehicle; HEK293 cells was determined as 1.18 fold. As to “LB-4E-BP1 - residues 29 to end (from UniProt Q13541 29-118)”, the fold-change of split-luciferase luminescence, rapamycin (50 nM, 1 h) over vehicle; HEK293 cells came out at 0.89 fold.
